Experimental data: the supplement of paper PMC11246515
± gives the standard deviation of the averaged measurements.

Test: total protein half-life in vivo (active degradation + dilution); higher = more stable protein
[1] = E. coli NCM3722 delta-clpP delta-lon delta-hslV, growth: N-lim chemostat, doubling time 6 h
[2] = E. coli NCM3722 delta-clpP, growth: N-lim chemostat, doubling time 6 h
[3] = E. coli NCM3722 delta-hslV, growth: N-lim chemostat, doubling time 6 h
[4] = E. coli NCM3722 delta-lon, growth: N-lim chemostat, doubling time 6 h
[5] = E. coli NCM3722 delta-smpB, growth: N-lim chemostat, doubling time 6 h
[6] = wild type E. coli NCM3722, growth: C-lim chemostat, doubling time 3 h
[7] = wild type E. coli NCM3722, growth: C-lim chemostat, doubling time 6 h
[8] = wild type E. coli NCM3722, growth: C-lim chemostat, doubling time 12 h
[9] = wild type E. coli NCM3722, growth: N-lim chemostat, doubling time 6 h
[10] = wild type E. coli NCM3722, growth: N-lim chemostat, doubling time 12 h
[11] = wild type E. coli NCM3722, growth: P-lim chemostat, doubling time 6 h
[12] = wild type E. coli NCM3722, growth: P-lim chemostat, doubling time 12 h

| Sequence | total protein half-life in vivo [1] | total protein half-life in vivo [2] | total protein half-life in vivo [3] | total protein half-life in vivo [4] | total protein half-life in vivo [5] | total protein half-life in vivo [6] | total protein half-life in vivo [7] | total protein half-life in vivo [8] | total protein half-life in vivo [9] | total protein half-life in vivo [10] | total protein half-life in vivo [11] | total protein half-life in vivo [12] |
| --- | --- | --- | --- | --- | --- | --- | --- | --- | --- | --- | --- | --- |
| MTILNHTLGFPRVGLRRELKKAQESYWAGNSTREELLAVGRELRARHWDQQKQAGIDLLPVGDFAWYDHVLTTSLLLGNVPARHQNKDGSVDIDTLFRIGRGRAPTGEPAAAAEMTKWFNTNYHYMVPEFVKGQQFKLTWTQLLDEVDEALALGHKVKPVLLGPVTWLWLGKVKGEQFDRLSLLNDILPVYQQVLAELAKRGIEWVQIDEPALVLELPQAWLDAYKPAYDALQGQVKLLLTTYFEGVTPNLDTITALPVQGLHVDLVHGKDDVAELHKRLPSDWLLSAGLINGRNVWRADLTEKYAQIKDIVGKRDLWVASSCSLLHSPIDLSVETRLDAEVKSWFAFALQKCHELALLRDALNSGDTAALAEWSAPIQARRHSTRVHNPAVEKRLAAITAQDSQRANVYEVRAEAQRARFKLPAWPTTTIGSFPQTTEIRTLRLDFKKGNLDANNYRTGIAEHIKQAIVEQERLGLDVLVHGEAERNDMVEYFGEHLDGFVFTQNGWVQSYGSRCVKPPIVIGDISRPAPITVEWAKYAQSLTDKPVKGMLTGPVTILCWSFPREDVSRETIAKQIALALRDEVADLEAAGIGIIQIDEPALREGLPLRRSDWDAYLQWGVEAFRINAAVAKDDTQIHTHMCYCEFNDIMDSIAALDADVITIETSRSDMELLESFEEFDYPNEIGPGVYDIHSPNVPSVEWIEALLKKAAKRIPAERLWVNPDCGLKTRGWPETRAALANMVQAAQNLRRG | 3.21 ± 0.81 h | 2.4 ± 0.23 h | 2.34 ± 0.34 h | 2.938 ± 0.012 h | 2.6 ± 0.53 h | 2.48 ± 0.19 h | 4.22 ± 0.071 h | 6.91 ± 0.33 h | 2.56 ± 0.063 h | 3.593 ± 0.023 h | 4.14 ± 0.21 h | 6.88 ± 1.1 h |
| MTITDLVLILFIAALLAFAIYDQFIMPRRNGPTLLAIPLLRRGRIDSVIFVGLIVILIYNNVTNHGALITTWLLSALALMGFYIFWIRVPKIIFKQKGFFFANVWIEYSRIKAMNLSEDGVLVMQLEQRRLLIRVRNIDDLEKIYKLLVSTQ | 7.14 h | 7.25 h | 6.58 h |  | 6.13 ± 0.82 h | 2.77 ± 0.15 h | 4.79 h |  | 5.6 h | 8.94 h |  |  |
| MTIYTLSHGSLKLDVSDQGGVIEGFWRDTTPLLRPGKKSGVATDASCFPLVPFANRVSGNRFVWQGREYQLQPNVEWDAHYLHGDGWLGEWQCVSHSDDSLCLVYEHRSGVYHYRVSQAFHLTADTLTVTLSVTNQGAETLPFGTGWHPYFPLSPQTRIQAQASGYWLEREQWLAGEFCEQLPQELDFNQPAPLPRQWVNNGFAGWNGQARIEQPQEGYAIIMETTPPAPCYFIFVSDPAFDKGYAFDFFCLEPMSHAPDDHHRPEGGDLIALAPGESTTSEMSLRVEWL | 6.63 h |  |  |  |  | 0.925 h |  | 10.7 h |  |  | 6.42 h | 11.3 ± 0.92 h |
| MTKHARFFLLPSFILISAALIAGCNDKGEEKAHVGEPQVTVHIVKTAPLEVKTELPGRTNAYRIAEVRPQVSGIVLNRNFTEGSDVQAGQSLYQIDPATYQANYDSAKGELAKSEAAAAIAHLTVKRYVPLVGTKYISQQEYDQAIADARQADAAVIAAKATVESARINLAYTKVTAPISGRIGKSTVTEGALVTNGQTTELATVQQLDPIYVDVTQSSNDFMRLKQSVEQGNLHKENATSNVELVMENGQTYPLKGTLQFSDVTVDESTGSITLRAVFPNPQHTLLPGMFVRARIDEGVQPDAILIPQQGVSRTPRGDATVLIVNDKSQVEARPVVASQAIGDKWLISEGLKSGDQVIVSGLQKARPGEQVKATTDTPADTASK |  |  |  |  |  |  |  | 13.2 h |  |  |  |  |
| MTKIIAVTACPSGVAHTYMAAEALESAAKAKGWEVKVETQGSIGLENELTAEDVASADMVILTKDIGIKFEERFAGKTIVRVNISDAVKRADAIMSKIEAHLAQTA | 4.85 ± 0.3 h | 5.65 h |  |  |  |  |  | 8.01 ± 8.9 h |  |  |  |  |
| MTKLKLLALGVLIATSAGVAHAEGKFSLGAGVGVVEHPYKDYDTDVYPVPVINYEGDNFWFRGLGGGYYLWNDATDKLSITAYWSPLYFKAKDSGDHQMRHLDDRKSTMMAGLSYAHFTQYGYLRTTLAGDTLDNSNGIVWDMAWLYRYTNGGLTVTPGIGVQWNSENQNEYYYGVSRKESARSGLRGYNPNDSWSPYLELSASYNFLGDWSVYGTARYTRLSDEVTDSPMVDKSWTGLISTGITYKF [P0A908] | 6.14 ± 1.1 h | 7.17 ± 0.13 h | 6.01 ± 1.1 h | 6.05 ± 1 h | 5.96 ± 0.079 h | 2.55 ± 0.14 h | 5.81 ± 0.46 h | 13.6 ± 2.3 h | 6.35 ± 0.63 h | 14 ± 1.4 h | 5.7 ± 0.23 h |  |
| MTKPYVRLDKNDAAVLLVDHQAGLLSLVRDIEPDKFKNNVLALGDLAKYFNLPTILTTSFETGPNGPLVPELKAQFPDTPYIARPGNINAWDNEDFVKAVKATGKKQLIIAGVVTEVCVAFPALSAIEEGFDVFVVTDASGTFNEITRHSAWDRLSQAGAQLMTWFGVACELHRDWRNDIEGLATLFSNHIPDYRNLMTSYDTLTKQK | 6.75 ± 1.6 h | 5.73 ± 0.18 h | 5.4 ± 0.7 h | 5.666 ± 0.053 h | 4.69 ± 0.19 h | 3.0124 ± 0.0024 h |  | 10.3 ± 1.9 h | 5.17 ± 0.61 h | 9.22 ± 0.33 h | 5.84 ± 0.94 h | 12.9 ± 1.1 h |
| MTKQPPIAKADLQKTQGNRAPAAVKNSDVISFINQPSMKEQLAAALPRHMTAERMIRIATTEIRKVPALGNCDTMSFVSAIVQCSQLGLEPGSALGHAYLLPFGNKNEKSGKKNVQLIIGYRGMIDLARRSGQIASLSARVVREGDEFSFEFGLDEKLIHRPGENEDAPVTHVYAVARLKDGGTQFEVMTRKQIELVRSLSKAGNNGPWVTHWEEMAKKTAIRRLFKYLPVSIEIQRAVSMDEKEPLTIDPADSSVLTGEYSVIDNSEE | 5.151 ± 0.025 h |  | 1.34 h |  |  | 2.62 ± 0.65 h | 3.79 ± 0.043 h | 7.28 ± 0.72 h | 1.57 h | 3.39 h |  | 4.09 ± 0.29 h |
| MTKTLLDGPGRVLESVYPRFLVDLAQGDDARLPQAHQQQFRERLMQELLSRVQLQTWTNGGMLNAPLSLRLTLVEKLASMLDPGHLALTQIAQHLALLQKMDHRQHSAFPELPQQIAALYEWFSARCRWKEKALTQRGLLVQAGDQSEQIFTRWRAGAYNAWSLPGRCFIVLEELRWGAFGDACRLGSPQAVALLLGDLLEKATQHLAESINAAPTTRHYYHQWFASSTVPTGGEHADFLSWLGKWTTADKQPVCWSVTQRWQTVALGMPRLCSAQRLAGAMLEEIFSVNLA |  |  |  |  | 3.06 h | 2.56 ± 0.43 h | 5.83 ± 1.1 h | 7.8 h |  |  |  | 12.1 ± 0.79 h |
| MTKYALVGDVGGTNARLALCDIASGEISQAKTYSGLDYPSLEAVIRVYLEEHKVEVKDGCIAIACPITGDWVAMTNHTWAFSIAEMKKNLGFSHLEIINDFTAVSMAIPMLKKEHLIQFGGAEPVEGKPIAVYGAGTGLGVAHLVHVDKRWVSLPGEGGHVDFAPNSEEEAIILEILRAEIGHVSAERVLSGPGLVNLYRAIVKADNRLPENLKPKDITERALADSCTDCRRALSLFCVIMGRFGGNLALNLGTFGGVFIAGGIVPRFLEFFKASGFRAAFEDKGRFKEYVHDIPVYLIVHDNPGLLGSGAHLRQTLGHIL [P0A6V8] | 5.167 ± 0.05 h | 5.45 ± 0.21 h | 4.8 ± 0.84 h | 5.7 ± 0.3 h | 5.16 ± 0.58 h | 2.78 ± 0.35 h | 6.3 ± 0.76 h |  | 5 ± 1.4 h | 9.21 ± 0.77 h |  | 15.2 ± 1.1 h |
| MTLETAFMLPVQDAQHSFRRLLKAMSEPGVIVALHQLKRGWQPLNIATTSVLLTLADNDTPVWLSTPLNNDIVNQSLRFHTNAPLVSQPEQATFAVTDEAISSEQLNALSTGTAVAPEAGATLILQVASLSGGRMLRLTGAGIAEERMIAPQLPECILHELTERPHPFPLGIDLILTCGERLLAIPRTTHVEVC |  |  |  |  |  |  |  |  |  |  | 1.74 ± 0.51 h | 3.12 ± 1.3 h |
| MTLKELLVGFGTQVRSIWMIGLHAFAKRETRMYPEEPVYLPPRYRGRIVLTRDPDGEERCVACNLCAVACPVGCISLQKAETKDGRWYPEFFRINFSRCIFCGLCEEACPTTAIQLTPDFEMGEYKRQDLVYEKEDLLISGPGKYPEYNFYRMAGMAIDGKDKGEAENEAKPIDVKSLLP [P0AFD6] | 6.29 ± 0.46 h | 7.36 ± 0.22 h | 6.38 ± 0.14 h | 7.21 ± 0.13 h | 6.351 ± 0.056 h | 3.32 ± 0.17 h | 6.25 ± 0.18 h | 12 ± 1.3 h | 5.99 ± 1.2 h | 15.2 ± 0.83 h | 6 ± 0.08 h | 13.6 ± 2.2 h |
| MTLLNISGLSHHYAHGGFNGKHQHQAVLNNVSLTLKSGETVALLGRSGCGKSTLARLLVGLESPAQGNISWRGEPLAKLNRAQRKAFRRDIQMVFQDSISAVNPRKTVREILREPMRHLLSLKKSEQLARASEMLKAVDLDDSVLDKRPPQLSGGQLQRVCLARALAVEPKLLILDEAVSNLDLVLQAGVIRLLKKLQQQFGTACLFITHDLRLVERFCQRVMVMDNGQIVETQVVGEKLTFSSDAGRVLQNAVLPAFPVRRRTTEKV | 6.58 h |  |  |  |  |  |  |  |  |  |  |  |
| MTLNKTDRIVITLGKQIVHGKYVPGSPLPAEAELCEEFATSRNIIREVFRSLMAKRLIEMKRYRGAFVAPRNQWNYLDTDVLQWVLENDYDPRLISAMSEVRNLVEPAIARWAAERATSSDLAQIESALNEMIANNQDREAFNEADIRYHEAVLQSVHNPVLQQLSIAISSLQRAVFERTWMGDEANMPQTLQEHKALFDAIRHQDGDAAEQAALTMIASSTRRLKEIT | 5.42 ± 0.19 h | 5.12 ± 0.7 h | 4.89 ± 0.076 h | 5.07 ± 0.42 h | 4.36 ± 0.15 h | 2.87 ± 0.24 h | 5.54 ± 0.089 h | 9.94 ± 0.54 h | 4.79 ± 0.079 h | 7.99 ± 0.64 h | 4.902 ± 0.047 h | 10.15 ± 0.052 h |
